We go through two molecules from article PMC3621618, “Comparative measurement of CNP and NT-proCNP in human blood samples: a methodological evaluation” (Journal of Negative Results in Biomedicine, 2013).

For data set [1] the following is noted: human serum and full blood (EDTA), room temperature, 30 min and 2 hours; CNP-22 EIA; n = 12.
Procedure: We studied 12 male volunteers (mean age 29 ± 2 years, normal weight, no drug therapy, no history of cardiovascular or other diseases, 3 smokers). From all investigated subjects informed consent was obtained. Triplets of fasting blood samples were taken from all volunteers at 8 o’clock in the morning. Blood samples were collected using the 7.5 ml S-Monovette® collection system (Sarstedt, Nümbrecht, Germany) containing either clotting activator (Kaolin) for serum samples, sodium-citrate for plasma samples or Potassium–EDTA for full blood samples. All samples for baseline analyses were immediately centrifuged at 2,000 × g for 10 min at 4°C and supernatant was stored at −70°C until analysis. For mid-term analyses (30 minutes or 2 hours), plasma samples were centrifuged at 2,000 × g for 10 min at room temperature. Supernatant was removed and stored at room temperature for 30 min or 2 hours. Following blood clotting, serum samples were processed identically to plasma samples. Supernatant was saved and also stored at room temperature for 30 min or 2 hours. Full blood samples were stored at room temperature without centrifugation. […] The concentration of CNP was measured using the CNP-22 EIA Kit (#EK-012-03, Phoenix Pharmaceuticals, Karlsruhe, Germany) according to the manufacturer’s protocol. […] Data were analyzed using MedCalc® for Windows, Version 10.0.1.0 (MedCalc Software, Mariakerke, Belgium).
The conditions of data set [2]: unknown storage conditions of blood samples; ref manufacturer's protocol; cited from earlier work. How it is done:
Consequently, the stability of the CNP peptide is most likely not affected by any delay in sample processing for at least two hours. ProCNP has already been reported (manufacturer’s protocol, unknown storage conditions of blood samples) to be stable for at least 2.5 hours. Accordingly, our experiments confirmed the stability of NT-proCNP even at room temperature.

Consider C-type natriuretic peptide [CNP], for which, in data set [1], the “stability of CNP in serum and full blood samples” value is “stable in serum and in full blood samples for at least two hours at room temperature”.

B1: ProCNP: pro-peptide of CNP, reported stable per the manufacturer's protocol (peptide, UniProt P23582 24-126, looked up)
pro-form: KPGAPPKVPRTPPAEELAEPQAAGGGQKKGDKAPGGGGANLKGDRSRLLRDLRVDTKSRAAWARLLQEHPNARKYKGANKKGLSKGCFGLKLDRIGSMSGLGC
modifications: pro-form
With B1, the “time for which ProCNP is stable” value in data set [2] was “at least 2.5 hours”.
